Non-standard residues stand in square brackets, D forms with d.
Molecular target: αV integrin (human (endogenous in SV40 immortalized human chondrocytes))

cyclo(RGD[dF]K) (also: conjugated to 3' end of Cy3-labelled 18-nt ssDNA) [cyclic peptide RGDfK (cRGDfK)]
tension gauge tether (TGT) assay: rupture of RGDfK-dsDNA tethers of 43 and 54 pN tension tolerance and loss of cell attachment, SV40 chondrocytes prechallenged with shear stress: > 43 pN

Reference: publication PMC7969741
